From paper PMC9482650, “Quantitative fragmentomics allow affinity mapping of interactomes” (Nature Communications, 2022)

T1: MPP7, Q5T2T1
T1 sequence (Q5T2T1 134-230, limits assumed, looked up): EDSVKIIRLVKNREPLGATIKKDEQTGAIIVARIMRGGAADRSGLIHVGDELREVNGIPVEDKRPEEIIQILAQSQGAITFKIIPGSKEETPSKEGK

T2: RHPN1, Q8TCX5
T2 sequence (Q8TCX5 508-602, limits assumed, looked up): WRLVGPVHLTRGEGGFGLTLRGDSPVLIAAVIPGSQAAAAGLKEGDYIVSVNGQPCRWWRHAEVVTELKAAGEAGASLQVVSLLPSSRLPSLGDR

T3: MPDZ_10, O75970
T3 sequence (O75970 1624-1722, limits assumed, looked up): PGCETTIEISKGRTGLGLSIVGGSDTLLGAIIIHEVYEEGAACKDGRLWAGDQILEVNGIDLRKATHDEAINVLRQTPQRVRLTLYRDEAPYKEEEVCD

T4: DFNB31_2, Q9P202
T4 sequence (Q9P202 274-371, limits assumed, looked up): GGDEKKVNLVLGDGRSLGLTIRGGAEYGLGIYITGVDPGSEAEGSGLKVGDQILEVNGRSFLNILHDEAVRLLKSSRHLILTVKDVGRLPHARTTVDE

T5: SNTB1, Q13884
T5 sequence (Q13884 107-205, limits assumed, looked up): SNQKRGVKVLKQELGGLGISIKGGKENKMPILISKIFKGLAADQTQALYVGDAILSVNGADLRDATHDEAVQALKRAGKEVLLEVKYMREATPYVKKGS

T6: PDZRN3_1, Q9UPQ7
T6 sequence (Q9UPQ7 244-349, limits assumed, looked up): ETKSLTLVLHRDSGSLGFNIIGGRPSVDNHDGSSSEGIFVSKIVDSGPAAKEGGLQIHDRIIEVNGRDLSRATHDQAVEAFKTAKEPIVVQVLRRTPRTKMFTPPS

T7: HTRA3, P83110
T7 sequence (P83110 354-453, limits assumed, looked up): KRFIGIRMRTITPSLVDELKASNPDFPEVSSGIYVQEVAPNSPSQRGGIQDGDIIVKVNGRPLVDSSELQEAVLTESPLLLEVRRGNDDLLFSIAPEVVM

T8: FRMPD1, Q5SYB0
T8 sequence (Q5SYB0 52-145, limits assumed, looked up): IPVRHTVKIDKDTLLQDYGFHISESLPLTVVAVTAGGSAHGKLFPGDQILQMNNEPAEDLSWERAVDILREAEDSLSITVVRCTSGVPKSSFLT

T9: ARHGAP21, Q5T5U3
T9 sequence (Q5T5U3 45-169, limits assumed, looked up): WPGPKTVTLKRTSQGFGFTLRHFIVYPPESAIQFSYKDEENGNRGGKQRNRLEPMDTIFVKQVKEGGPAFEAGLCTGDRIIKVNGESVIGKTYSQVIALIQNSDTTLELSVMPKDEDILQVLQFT

T10: MPDZ_5, O75970
T10 sequence (O75970 695-796, limits assumed, looked up): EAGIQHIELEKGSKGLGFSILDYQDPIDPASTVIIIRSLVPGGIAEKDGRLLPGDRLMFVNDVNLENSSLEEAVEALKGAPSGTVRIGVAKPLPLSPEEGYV

T11: LRRC7, Q96NW7
T11 sequence (Q96NW7 1440-1537, limits assumed, looked up): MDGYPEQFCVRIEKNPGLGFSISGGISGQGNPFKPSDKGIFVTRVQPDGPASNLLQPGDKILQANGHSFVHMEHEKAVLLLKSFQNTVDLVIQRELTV


The binders below were run against Inadl_1, Q8NI35 (assay: holdup assay). Details: plain residues with an end cap or a label only (N-terminal biotin on a linker: ado-ado).
Chain of Inadl_1, Q8NI35 (Q8NI35 113-229): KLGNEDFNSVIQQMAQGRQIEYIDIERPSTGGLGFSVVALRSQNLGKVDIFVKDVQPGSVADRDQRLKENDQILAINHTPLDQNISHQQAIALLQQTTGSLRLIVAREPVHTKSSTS
Set-up: key: below the threshold = too weak to quantify, mostly under pKd 3.1 to 4
With MLPANYVEAI [NEB, P20929] the pKd was “below the threshold”.

The binders below were run against GORASP2, Q9H8Y8 (assay: holdup assay). Details: plain residues with an end cap or a label only (N-terminal biotin on a linker: ado-ado).
Set-up: key: below the threshold = too weak to quantify, mostly under pKd 3.1 to 4
MLPANYVEAI [NEB, P20929] gave a pKd of 4.31.

Each binder was assayed against DLG2_3, Q15700 (assay: holdup assay). Details: plain residues with an end cap or a label only (N-terminal biotin on a linker: ado-ado).
Set-up: key: below the threshold = too weak to quantify, mostly under pKd 3.1 to 4
For MLPANYVEAI [NEB, P20929], the pKd was 3.56.

What follows are binders tested against T1, MPP7, Q5T2T1 (assay: holdup assay). Details: plain residues with an end cap or a label only (N-terminal biotin on a linker: ado-ado).
Set-up: key: below the threshold = too weak to quantify, mostly under pKd 3.1 to 4
In the case of MLPANYVEAI [NEB, P20929], the pKd is reported as “below the threshold”.

The binders below were run against T2, RHPN1, Q8TCX5 (assay: holdup assay). Details: plain residues with an end cap or a label only (N-terminal biotin on a linker: ado-ado).
Set-up: key: below the threshold = too weak to quantify, mostly under pKd 3.1 to 4
With MLPANYVEAI [NEB, P20929] the pKd was “below the threshold”.

Each binder was assayed against T3, MPDZ_10, O75970 (assay: holdup assay). Details: plain residues with an end cap or a label only (N-terminal biotin on a linker: ado-ado).
Set-up: key: below the threshold = too weak to quantify, mostly under pKd 3.1 to 4
In the case of MLPANYVEAI [NEB, P20929], the pKd is reported as “below the threshold”.

What follows are binders tested against NHERF4_1, Q86UT5-2 (assay: holdup assay). Details: plain residues with an end cap or a label only (N-terminal biotin on a linker: ado-ado).
Chain of NHERF4_1, Q86UT5-2 (Q86UT5 other isoform, or with tags, fused parts or gaps): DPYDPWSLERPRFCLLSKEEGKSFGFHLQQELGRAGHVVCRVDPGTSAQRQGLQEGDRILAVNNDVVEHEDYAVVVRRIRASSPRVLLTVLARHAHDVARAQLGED
Set-up: key: below the threshold = too weak to quantify, mostly under pKd 3.1 to 4
For MLPANYVEAI [NEB, P20929], the pKd was “below the threshold”.

These binders were tested against SCRIB_3, Q14160 (assay: holdup assay). Details: plain residues with an end cap or a label only (N-terminal biotin on a linker: ado-ado).
Chain of SCRIB_3, Q14160 (Q14160 999-1103): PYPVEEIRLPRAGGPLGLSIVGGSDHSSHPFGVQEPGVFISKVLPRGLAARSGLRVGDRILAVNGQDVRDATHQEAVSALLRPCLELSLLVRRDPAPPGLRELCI
Set-up: key: below the threshold = too weak to quantify, mostly under pKd 3.1 to 4
With MLPANYVEAI [NEB, P20929] the pKd was “below the threshold”.

What follows are binders tested against NHERF4_4, Q86UT5 (assay: holdup assay). Details: plain residues with an end cap or a label only (N-terminal biotin on a linker: ado-ado).
Chain of NHERF4_4, Q86UT5 (Q86UT5 464-550): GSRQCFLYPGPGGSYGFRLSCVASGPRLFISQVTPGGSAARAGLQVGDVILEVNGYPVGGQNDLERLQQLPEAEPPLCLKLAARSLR
Set-up: key: below the threshold = too weak to quantify, mostly under pKd 3.1 to 4
MLPANYVEAI [NEB, P20929] was tested, and the pKd was “below the threshold”.

The binders below were run against T4, DFNB31_2, Q9P202 (assay: holdup assay). Details: plain residues with an end cap or a label only (N-terminal biotin on a linker: ado-ado).
Set-up: key: below the threshold = too weak to quantify, mostly under pKd 3.1 to 4
MLPANYVEAI [NEB, P20929] was tested, and the pKd was “below the threshold”.

What follows are binders tested against GRIP2_6, Q9C0E4 (assay: holdup assay). Details: plain residues with an end cap or a label only (N-terminal biotin on a linker: ado-ado).
Chain of GRIP2_6, Q9C0E4 (Q9C0E4 648-740): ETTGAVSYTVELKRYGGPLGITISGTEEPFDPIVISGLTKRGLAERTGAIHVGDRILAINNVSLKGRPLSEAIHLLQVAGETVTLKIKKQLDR
Set-up: key: below the threshold = too weak to quantify, mostly under pKd 3.1 to 4
In the case of MLPANYVEAI [NEB, P20929], the pKd is reported as “below the threshold”.

The binders below were run against PDLIM1, O00151 (assay: holdup assay). Details: plain residues with an end cap or a label only (N-terminal biotin on a linker: ado-ado).
Chain of PDLIM1, O00151 (O00151 1-87): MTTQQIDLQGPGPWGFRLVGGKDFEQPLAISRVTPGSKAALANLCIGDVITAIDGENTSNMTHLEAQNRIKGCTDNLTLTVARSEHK
Set-up: key: below the threshold = too weak to quantify, mostly under pKd 3.1 to 4
For MLPANYVEAI [NEB, P20929], the pKd was “below the threshold”.

Each binder was assayed against T5, SNTB1, Q13884 (assay: holdup assay). Details: plain residues with an end cap or a label only (N-terminal biotin on a linker: ado-ado).
Set-up: key: below the threshold = too weak to quantify, mostly under pKd 3.1 to 4
With MLPANYVEAI [NEB, P20929] the pKd was “below the threshold”.

The binders below were run against SCRIB_1, Q14160 (assay: holdup assay). Details: plain residues with an end cap or a label only (N-terminal biotin on a linker: ado-ado).
Chain of SCRIB_1, Q14160 (Q14160 718-814): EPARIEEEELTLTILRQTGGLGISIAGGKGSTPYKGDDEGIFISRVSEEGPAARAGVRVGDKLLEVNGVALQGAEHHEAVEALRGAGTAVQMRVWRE
Set-up: key: below the threshold = too weak to quantify, mostly under pKd 3.1 to 4
With MLPANYVEAI [NEB, P20929] the pKd was “below the threshold”.

Each binder was assayed against FRMPD2_2, Q68DX3 (assay: holdup assay). Details: plain residues with an end cap or a label only (N-terminal biotin on a linker: ado-ado).
Chain of FRMPD2_2, Q68DX3 (Q68DX3 944-1038): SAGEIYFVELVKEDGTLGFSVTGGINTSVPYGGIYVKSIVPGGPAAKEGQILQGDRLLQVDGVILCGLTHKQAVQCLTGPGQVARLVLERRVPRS
Set-up: key: below the threshold = too weak to quantify, mostly under pKd 3.1 to 4
MLPANYVEAI [NEB, P20929] was tested, and the pKd was “below the threshold”.

These binders were tested against Inadl_4, Q8NI35 (assay: holdup assay). Details: plain residues with an end cap or a label only (N-terminal biotin on a linker: ado-ado).
Chain of Inadl_4, Q8NI35 (Q8NI35 547-651): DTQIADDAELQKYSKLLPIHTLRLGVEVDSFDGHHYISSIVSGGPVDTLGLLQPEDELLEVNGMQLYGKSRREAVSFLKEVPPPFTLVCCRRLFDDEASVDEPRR
Set-up: key: below the threshold = too weak to quantify, mostly under pKd 3.1 to 4
For MLPANYVEAI [NEB, P20929], the pKd was “below the threshold”.

The binders below were run against TJP1_2, Q07157 (assay: holdup assay). Details: plain residues with an end cap or a label only (N-terminal biotin on a linker: ado-ado).
Chain of TJP1_2, Q07157 (Q07157 181-274): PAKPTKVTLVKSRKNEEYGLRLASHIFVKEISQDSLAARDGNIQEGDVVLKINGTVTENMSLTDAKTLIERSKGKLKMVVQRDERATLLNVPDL
Set-up: key: below the threshold = too weak to quantify, mostly under pKd 3.1 to 4
With MLPANYVEAI [NEB, P20929] the pKd was “below the threshold”.

What follows are binders tested against Inadl_3, Q8NI35 (assay: holdup assay). Details: plain residues with an end cap or a label only (N-terminal biotin on a linker: ado-ado).
Chain of Inadl_3, Q8NI35 (Q8NI35 359-469): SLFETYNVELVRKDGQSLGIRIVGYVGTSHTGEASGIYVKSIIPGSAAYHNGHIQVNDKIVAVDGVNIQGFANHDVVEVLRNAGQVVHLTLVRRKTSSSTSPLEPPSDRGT
Set-up: key: below the threshold = too weak to quantify, mostly under pKd 3.1 to 4
With MLPANYVEAI [NEB, P20929] the pKd was “below the threshold”.

These binders were tested against T6, PDZRN3_1, Q9UPQ7 (assay: holdup assay). Details: plain residues with an end cap or a label only (N-terminal biotin on a linker: ado-ado).
Set-up: key: below the threshold = too weak to quantify, mostly under pKd 3.1 to 4
In the case of MLPANYVEAI [NEB, P20929], the pKd is reported as “below the threshold”.

These binders were tested against T7, HTRA3, P83110 (assay: holdup assay). Details: plain residues with an end cap or a label only (N-terminal biotin on a linker: ado-ado).
Set-up: key: below the threshold = too weak to quantify, mostly under pKd 3.1 to 4
In the case of MLPANYVEAI [NEB, P20929], the pKd is reported as “below the threshold”.

The binders below were run against T8, FRMPD1, Q5SYB0 (assay: holdup assay). Details: plain residues with an end cap or a label only (N-terminal biotin on a linker: ado-ado).
Set-up: key: below the threshold = too weak to quantify, mostly under pKd 3.1 to 4
In the case of MLPANYVEAI [NEB, P20929], the pKd is reported as “below the threshold”.

The binders below were run against IL16_1, Q14005 (assay: holdup assay). Details: plain residues with an end cap or a label only (N-terminal biotin on a linker: ado-ado).
Chain of IL16_1, Q14005 (Q14005 210-306): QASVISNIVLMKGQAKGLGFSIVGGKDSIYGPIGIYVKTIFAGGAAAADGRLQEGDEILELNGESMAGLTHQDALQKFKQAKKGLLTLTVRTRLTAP
Set-up: key: below the threshold = too weak to quantify, mostly under pKd 3.1 to 4
MLPANYVEAI [NEB, P20929] was tested, and the pKd was “below the threshold”.

The binders below were run against GORASP1, Q9BQQ3 (assay: holdup assay). Details: plain residues with an end cap or a label only (N-terminal biotin on a linker: ado-ado).
Chain of GORASP1, Q9BQQ3 (Q9BQQ3 1-208): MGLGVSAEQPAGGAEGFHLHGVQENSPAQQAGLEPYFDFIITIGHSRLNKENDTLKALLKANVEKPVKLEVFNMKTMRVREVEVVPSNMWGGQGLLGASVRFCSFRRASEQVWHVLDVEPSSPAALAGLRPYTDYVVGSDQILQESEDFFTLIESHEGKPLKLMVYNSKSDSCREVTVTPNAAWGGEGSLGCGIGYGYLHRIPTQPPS
Set-up: key: below the threshold = too weak to quantify, mostly under pKd 3.1 to 4
MLPANYVEAI [NEB, P20929] gave a pKd of 3.7.

What follows are binders tested against T9, ARHGAP21, Q5T5U3 (assay: holdup assay). Details: plain residues with an end cap or a label only (N-terminal biotin on a linker: ado-ado).
Set-up: key: below the threshold = too weak to quantify, mostly under pKd 3.1 to 4
With MLPANYVEAI [NEB, P20929] the pKd was “below the threshold”.

The binders below were run against T10, MPDZ_5, O75970 (assay: holdup assay). Details: plain residues with an end cap or a label only (N-terminal biotin on a linker: ado-ado).
Set-up: key: below the threshold = too weak to quantify, mostly under pKd 3.1 to 4
MLPANYVEAI [NEB, P20929] was tested, and the pKd was “below the threshold”.

The binders below were run against DLG4_1, P78352 (assay: holdup assay). Details: plain residues with an end cap or a label only (N-terminal biotin on a linker: ado-ado).
Chain of DLG4_1, P78352 (P78352 62-152): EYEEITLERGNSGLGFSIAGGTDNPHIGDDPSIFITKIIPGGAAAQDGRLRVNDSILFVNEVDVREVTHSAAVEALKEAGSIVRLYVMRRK
Set-up: key: below the threshold = too weak to quantify, mostly under pKd 3.1 to 4
With MLPANYVEAI [NEB, P20929] the pKd was “below the threshold”.

What follows are binders tested against T11, LRRC7, Q96NW7 (assay: holdup assay). Details: plain residues with an end cap or a label only (N-terminal biotin on a linker: ado-ado).
Set-up: key: below the threshold = too weak to quantify, mostly under pKd 3.1 to 4
In the case of MLPANYVEAI [NEB, P20929], the pKd is reported as “below the threshold”.
